Results published in patent US20210261622A1 (Janssen / Centocor, published 2021).
Read-outs that look alike come from different tables or passages of the source. Bridge positions count the residues as written; N and C are the ends. Square brackets hold non-standard residues; d marks the D form. Trp(7-Ph) = N[C@@H](Cc1c[nH]c2c(-c3ccccc3)cccc12)C(=O)O; Trp(5-CN) = N#Cc1ccc2[nH]cc(C[C@H](N)C(=O)O)c2c1; Trp(7-Me) = Cc1cccc2c(C[C@H](N)C(=O)O)c[nH]c12; 2Nal = N[C@@H](Cc1ccc2ccccc2c1)C(=O)O; AEF = NCCOc1ccc(C[C@H](N)C(=O)O)cc1; dNMeY = CN[C@H](Cc1ccc(O)cc1)C(=O)O; 3Pal = N[C@@H](Cc1cccnc1)C(=O)O; Cit = NC(=O)NCCC[C@H](N)C(=O)O; αMeL = CC(C)C[C@](C)(N)C(=O)O; Pen = CC(C)(S)[C@H](N)C(=O)O; Trp(5-Ca) = not defined here; αMeK = C[C@](N)(CCCCN)C(=O)O; Ac5c = NC1(C(=O)O)CCCC1; Thp = NC1(C(=O)O)CCOCC1; Abu = CC[C@H](N)C(=O)O; Sar = CNCC(=O)O

T1: human IL-23R (human, UniProt Q5VWK5 24-629)
T1 sequence (looked up): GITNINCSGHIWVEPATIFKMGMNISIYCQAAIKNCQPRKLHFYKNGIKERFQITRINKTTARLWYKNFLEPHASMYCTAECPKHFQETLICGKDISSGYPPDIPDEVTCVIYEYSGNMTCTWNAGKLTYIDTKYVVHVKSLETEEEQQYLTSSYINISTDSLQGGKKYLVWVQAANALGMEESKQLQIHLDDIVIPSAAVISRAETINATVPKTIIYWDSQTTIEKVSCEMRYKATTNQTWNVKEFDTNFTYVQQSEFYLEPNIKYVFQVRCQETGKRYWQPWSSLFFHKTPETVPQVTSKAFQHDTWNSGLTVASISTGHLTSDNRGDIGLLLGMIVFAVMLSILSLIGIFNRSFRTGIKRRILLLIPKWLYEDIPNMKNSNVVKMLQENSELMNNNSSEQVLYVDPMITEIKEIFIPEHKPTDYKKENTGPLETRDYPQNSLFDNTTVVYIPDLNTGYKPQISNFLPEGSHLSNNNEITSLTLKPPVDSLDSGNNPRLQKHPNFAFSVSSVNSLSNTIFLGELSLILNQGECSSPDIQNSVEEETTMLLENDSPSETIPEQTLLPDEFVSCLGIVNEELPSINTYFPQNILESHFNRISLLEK

T2: interleukin-23 receptor (IL-23R) (human, UniProt Q5VWK5 24-629)
T2 sequence (looked up): T1 sequence (looked up)

B1: Peptide No. 160 (peptide)
peptide: Ac-[Pen]NT[Trp(5-Ca)]K(Ac)[Pen][AEF][2Nal][Thp]EN[3Pal][Sar]-NH2
modifications: disulfide 1-6; reading uncertain; also: printed as Ac-[Pen]-N-T-[W(5-Ca)]-[Lys(Ac)]-[Pen]-Phe[4-(2-aminoethoxy)]-[2-Nal]-[THP]-E-N-[3Pal]-[Sarc]-NH2; Pen-Pen disulfide
B2: Peptide No. 121 (SEQ ID NO: 121) (peptide)
peptide: Ac-[Pen]NT[Trp(7-Me)]K(Ac)[Pen][AEF][2Nal][Thp]EN[3Pal][dNMeY]-NH2
modifications: disulfide 1-6
SMILES: CC(=O)NCCCC[C@@H]1NC(=O)[C@H](Cc2c[nH]c3c(C)cccc23)NC(=O)[C@H]([C@@H](C)O)NC(=O)[C@H](CC(N)=O)NC(=O)[C@@H](NC(C)=O)C(C)(C)SSC(C)(C)[C@@H](C(=O)N[C@@H](Cc2ccc(OCCN)cc2)C(=O)N[C@@H](Cc2ccc3ccccc3c2)C(=O)NC2(C(=O)N[C@@H](CCC(=O)O)C(=O)N[C@@H](CC(N)=O)C(=O)N[C@@H](Cc3cccnc3)C(=O)N(C)[C@H](Cc3ccc(O)cc3)C(N)=O)CCOCC2)NC1=O
B3: Peptide No. 85 (peptide)
peptide: Ac-[Pen]NT[Trp(7-Me)][Cit][Pen][AEF][2Nal][αMeL]K(Ac)N[dH]-NH2
modifications: disulfide 1-6
SMILES: CC(=O)NCCCC[C@H](NC(=O)[C@](C)(CC(C)C)NC(=O)[C@H](Cc1ccc2ccccc2c1)NC(=O)[C@H](Cc1ccc(OCCN)cc1)NC(=O)[C@H]1NC(=O)[C@H](CCCNC(N)=O)NC(=O)[C@H](Cc2c[nH]c3c(C)cccc23)NC(=O)[C@H]([C@@H](C)O)NC(=O)[C@H](CC(N)=O)NC(=O)[C@@H](NC(C)=O)C(C)(C)SSC1(C)C)C(=O)N[C@@H](CC(N)=O)C(=O)N[C@H](Cc1c[nH]cn1)C(N)=O
B4: Peptide No. 8 (peptide)
peptide: RXQTWQCFXXENNY
modifications: Ac-[(D)Arg]-[Abu]-Q-T-W-Q-[Cys]-Phe[4-(2-aminoethoxy)]-[2-Nal]-[THP]-E-N-N-[(D)NMeTyr]-NH2; Abu-Cys thioether
B5: Peptide No. 117 (peptide)
peptide: Ac-[Pen]NT[Trp(7-Ph)]K(Ac)[Pen][AEF][2Nal][Thp]K(Ac)N[3Pal][Sar]-NH2
modifications: disulfide 1-6
SMILES: CC(=O)NCCCC[C@@H]1NC(=O)[C@H](Cc2c[nH]c3c(-c4ccccc4)cccc23)NC(=O)[C@H]([C@@H](C)O)NC(=O)[C@H](CC(N)=O)NC(=O)[C@@H](NC(C)=O)C(C)(C)SSC(C)(C)[C@@H](C(=O)N[C@@H](Cc2ccc(OCCN)cc2)C(=O)N[C@@H](Cc2ccc3ccccc3c2)C(=O)NC2(C(=O)N[C@@H](CCCCNC(C)=O)C(=O)N[C@@H](CC(N)=O)C(=O)N[C@@H](Cc3cccnc3)C(=O)N(C)CC(N)=O)CCOCC2)NC1=O
B6: Peptide No. 235 (peptide)
peptide: Ac-[dR][Pen]NT[Trp(7-Me)]K(Ac)[Pen][AEF][2Nal][Ac5c]EN[3Pal][Sar]-NH2
modifications: disulfide 2-7
SMILES: CC(=O)NCCCC[C@@H]1NC(=O)[C@H](Cc2c[nH]c3c(C)cccc23)NC(=O)[C@H]([C@@H](C)O)NC(=O)[C@H](CC(N)=O)NC(=O)[C@@H](NC(=O)[C@@H](CCCNC(=N)N)NC(C)=O)C(C)(C)SSC(C)(C)[C@@H](C(=O)N[C@@H](Cc2ccc(OCCN)cc2)C(=O)N[C@@H](Cc2ccc3ccccc3c2)C(=O)NC2(C(=O)N[C@@H](CCC(=O)O)C(=O)N[C@@H](CC(N)=O)C(=O)N[C@@H](Cc3cccnc3)C(=O)N(C)CC(N)=O)CCCC2)NC1=O

Columns and labels:
Test in all cases: cell-based or functional assay
[1] = molecular target: T1, human IL-23R
[2] = molecular target: T2, interleukin-23 receptor (IL-23R)
[3] = molecular target: T1, human IL-23R; remark: listed apart in the source

Binder | pStat3 HTRF IC50 [1] | PBMC pSTAT3 IC50 [1] | also measured
B1 | > 10 nM | – | –
B2 | – | – | IC50, NK Cell Assay (IFNγ in supernatant of human NK cells stimulated with IL-23 and IL-18) [2]: 40 pM
Ac-[Abu]QT[Trp(7-Me)]K(Ac)C[AEF][2Nal][αMeK]K(Ac)N[dK][Sar]-NH2 (thioether 1-6) [Peptide No. 17] | – | 0.791 nM | –
B3 | – | 3 nM | –
B4 | – | 1 nM | –
B5 | 20 pM | – | –
B6 | – | – | PBMC pSTAT3 IC50 [3]: 10 pM
Ac-[Pen]NT[Trp(5-CN)]K(Ac)[Pen][AEF][2Nal][Thp]EN[3Pal][Sar]-NH2 (disulfide 1-6 (inferred)) [Peptide No. 154] | > 10 nM | – | –
Ac-[Pen]NT[Trp(5-Ph)]K(Ac)[Pen][AEF][2Nal][Thp]EN[3Pal][Sar]-NH2 (disulfide 1-6 (inferred)) [Peptide No. 150] | > 10 nM | – | –
Ac-[Abu]QT[Trp(7-Ph)]K(Ac)C[AEF][2Nal][αMeK]K(Ac)N[dK][Sar]-NH2 (thioether 1-6) [Peptide No. 18] | – | 1.1 nM | –
Ac-[dR][Pen]NT[Trp(7-Me)]K(Ac)[Pen][AEF][2Nal][Thp]ENN[dNMeY]-NH2 (disulfide 2-7) [Peptide No. 88] | – | > 2 µM | –
Ac-[Pen]NT[Trp(7-(3-carboxamidophenyl))]K(Ac)[Pen][AEF][2Nal][Thp]EN[3Pal][Sar]-NH2 (disulfide 1-6 (inferred)) [Peptide No. 142] | 90 pM | – | –
